Among the data in patent US20220002431A1 are EC50 for killing of Raji-luc cells by CIK effector cells, luciferase read-out values, retold here.

For the assay, the target named is CD20 on Raji cells (CD20-positive human Burkitt's lymphoma cells) (human) (UniProt P11836). Description: cell-based or functional assay.
CD20 on Raji cells (CD20-positive human Burkitt's lymphoma cells) (human), sequence (P11836 whole entry): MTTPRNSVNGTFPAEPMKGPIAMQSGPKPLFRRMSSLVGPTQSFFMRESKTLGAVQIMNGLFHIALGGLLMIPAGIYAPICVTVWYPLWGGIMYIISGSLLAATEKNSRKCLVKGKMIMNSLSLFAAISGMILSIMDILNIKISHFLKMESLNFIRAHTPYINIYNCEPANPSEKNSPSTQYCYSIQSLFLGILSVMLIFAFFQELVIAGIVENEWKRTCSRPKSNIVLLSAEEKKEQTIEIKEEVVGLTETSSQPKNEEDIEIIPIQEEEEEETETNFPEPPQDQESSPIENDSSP

Take isotype antibody (negative control): the EC50 for killing of Raji-luc cells by CIK effector cells, luciferase read-out stood at 230 ng/mL.
